Target: IL-1 receptors on fibroblasts (human) (UniProt P14778)
Assay: cell-based or functional assay

UniProt P14778, sequence (P14778 18-569): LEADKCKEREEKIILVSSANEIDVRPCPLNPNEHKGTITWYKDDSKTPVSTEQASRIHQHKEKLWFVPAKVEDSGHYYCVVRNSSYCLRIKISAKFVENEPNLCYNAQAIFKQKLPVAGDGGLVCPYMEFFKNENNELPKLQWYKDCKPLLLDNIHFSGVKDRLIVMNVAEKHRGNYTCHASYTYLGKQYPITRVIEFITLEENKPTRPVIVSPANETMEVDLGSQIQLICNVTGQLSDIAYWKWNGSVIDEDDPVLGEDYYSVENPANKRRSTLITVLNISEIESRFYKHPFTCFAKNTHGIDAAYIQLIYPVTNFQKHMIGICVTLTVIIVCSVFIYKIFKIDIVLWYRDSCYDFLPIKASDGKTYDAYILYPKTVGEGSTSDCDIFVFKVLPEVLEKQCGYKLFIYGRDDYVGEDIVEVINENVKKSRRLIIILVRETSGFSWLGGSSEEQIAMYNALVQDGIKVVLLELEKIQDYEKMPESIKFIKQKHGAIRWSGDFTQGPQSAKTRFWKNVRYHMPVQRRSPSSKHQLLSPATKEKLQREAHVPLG

Substance: rhIL-1L1 Form B (from UniProt Q9UBH0 1-155) (ligand)
- IL-1-like activity: IL-6 secretion by fibroblasts and endothelial cells (ELISA) (% of the activity of 0.1 nM IL-1b): < 1

Substance: recombinant human IL-1 receptor antagonist (rhIL-1ra) (from UniProt P18510 28-177) (ligand)
- IL-6 production from fibroblasts in response to 0.1 nM IL-1b (ELISA): 95 % reduction
